Results as given in paper PMC4794909, “The transcription factor scleraxis is a critical regulator of cardiac fibroblast phenotype”.
Positions count from the first letter of the chain named.

T1: scleraxis (Scx) (UniProt Q6P6L3 1-207)
T1 sequence: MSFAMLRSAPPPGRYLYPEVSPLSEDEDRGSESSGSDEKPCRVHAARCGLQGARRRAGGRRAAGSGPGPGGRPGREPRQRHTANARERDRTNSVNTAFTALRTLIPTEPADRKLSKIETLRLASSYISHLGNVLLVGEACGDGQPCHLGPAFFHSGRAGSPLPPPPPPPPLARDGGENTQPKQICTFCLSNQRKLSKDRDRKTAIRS

B1: E box 2 (E2), αSMA promoter (dsDNA)
DNA 1: GTTTATCCCCATAAGCAGCTGAACTGCCTCCTGTTT
DNA 2: AAACAGGAGGCAGTTCAGCTGCTTATGGGGATAAAC
B2: E box 2 mutant (mE2) (dsDNA)
DNA 1: B1 DNA 1 with A17T, C19G
DNA 2: B1 DNA 2 with G18C, T20A
B3: E box 1 (E1), αSMA promoter (dsDNA)
DNA 1: GTCTGGGCATTTGAGCAGTTGTTCTGAGGGCTCAGG
DNA 2: CCTGAGCCCTCAGAACAACTGCTCAAATGCCCAGAC
B4: E box 1 mutant (mE1) (dsDNA)
DNA 1: B3 DNA 1 with A17C, T19A
DNA 2: B3 DNA 2 with A18T, T20G

Biological target: T1, scleraxis (Scx)
Test: EMSA; LightShift Chemiluminescent EMSA Kit (Pierce) per manufacturer, as in ref. 18; 500x cold competition; buffer, salt, pH and temperature not given
Details: chain copies: 2; label: biotin; blunt

Binder | binding result
B1 | binds
B2 | no binding
B3 | binds
B4 | no binding
